Results from the nanobody polyreactivity screen of Harvey et al. (2022).

Test: yeast display, Sf9 membrane polyspecificity reagent, FACS + sequencing; frameworks hold sequencing errors
Method in brief: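 After 36–48 hours of galactose induction, yeast (Saccharomyces cerevisiae BJ5465) displaying a synthetic nanobody library were stained at 4 °C for 1 hour with 10% biotinylated, detergent-solubilized Sf9 membrane reagent. Streptavidin microbeads enriched the stained cells before FACS sorting into low and high (top ~1%) gates on anti-HA and streptavidin fluorescence. Each clone's polyreactivity label reflects its gate of origin.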

Question: With “QVQHVQTLGGLDQAGGSLRLSFSDSGSNFGYYSIVLYRLAPGKERELVAAITGSGGGTYYADSVKGRLTISRDNAKNTVYLQMNSLKPEDTAVYYCAKDRNYRIYWGEYWGHGTQVTVSS” as the sequence, how does the “polyreactivity (PSR sort gate)” value read?
Answer: low polyreactivity

Question: With “QVQIEESGGGLVQAGGSLRLSCAASGFIFRPYAMGWYRQAPGKERELVAAITGGGSTYYADSVKGRFTISRDNAKNTVYLQMISLKPEDTAVYYCNADRRRRSGGFAGWHFQRNDYWGQGTQVTVSS” as the sequence, how does the “polyreactivity (PSR sort gate)” value read?
Answer: low polyreactivity

Question: Which “polyreactivity (PSR sort gate)” value does the source give for “QVQIEESGGGLVQAGGSLRLSCAASGRTFYANVMGWSRQAPGIEWELVAAITYSGGSTYYADSVKGRFTISRDNAQNTVYVLMNCLKQEDTADYYCAADNVYTFYYWGQGTLVTVSS” here?
Answer: low polyreactivity

Question: With “QVQIEESGGGLVQAGGSLRLSCAASGSTFGINAMGWSRQAPGKERELVAAISSRGGSTYYADSVKGRFTISRDNAQNTVYLQMNSLKPADTALYSCNRRGWSRTHQYDYWGQGTQVTVSS” as the sequence, how does the “polyreactivity (PSR sort gate)” value read?
Answer: high polyreactivity

Question: Which “polyreactivity (PSR sort gate)” value does the source give for “QVQIGESGGGLVQAGGSLRLSCAASGRTFGLYAMGWYRQAPGKERELVAAITISGGITHYADSVKGRFTISRDIAKNSVYLQMNSLKPEDTAVYYCAAEPPGFRTSGVGYWGQGTQVTVSS” here?
Answer: low polyreactivity

Question: With “QVQIVDSGGGLVQAGGSLRISCAASGRIFAGYGKGWYRQAPGKERELVAAISSGGSTYYADSVKGRFTISRDNAKNTVYLQMNSLKPEDTAVYYCATDGQSVPDDYYQNVDYDYWGQGTQVTVSS” as the sequence, how does the “polyreactivity (PSR sort gate)” value read?
Answer: low polyreactivity

Question: Which “polyreactivity (PSR sort gate)” value does the source give for “QVQIVDSGGGLVQAGGSLRLSCAASGLIIGPYAMGWYRQAPGKERELVAAITSGTTTYYADSVKGRFTISRDNAKNTVYLQMNSLKPEDTAVYYCAAYWPVNSQPIQIGYLYDYWGQGTQVTVSS” here?
Answer: low polyreactivity

Question: Which “polyreactivity (PSR sort gate)” value does the source give for “QVQIVDSGGGLVQAGGSLRLSCAASGRIIPANAMGWYRQAPGKERELVAAIDYDGGSTYYADSVKGRFTISRDNAKNTVYLQMNSLNPEVTAVYYCAADFYDYEGSYYDYYWGQGTQVTVSS” here?
Answer: high polyreactivity

Question: Which “polyreactivity (PSR sort gate)” value does the source give for “QVQIVDSGGGLVQAGGSLSLSCAASGSTFRGYAMGWYRQAPGKERELVAAITGSGDRTRYADSVKGRFTISRDNAKNTVYLQKNSLKPADTAVNYCAKVWPHWAYYSWGQGTQVTLSS” here?
Answer: high polyreactivity

Question: With “QVQIVESGAGLVHAGGSLRISCAASGRIFWIYAMGWYRQAPGKESELVATITGSGGSTYYADSVKGRFTISRDNAKKTVYLQMNSLKPEVTAVYYCAARYPVSGGYDYWGQGTQVTLSS” as the sequence, how does the “polyreactivity (PSR sort gate)” value read?
Answer: low polyreactivity

Question: For “QVQIVESGAGLVQAGGSLRISCAPSGRTFLYNAMGWYIQAPGKESELVAAIDGGTGSTYYADSVKARFTISRDNAKNTVYLQMIRLNPEDTAGYYCAAETYGVGYPVNYDYWGQGTQVTVSS”, which “polyreactivity (PSR sort gate)” value is on record?
Answer: low polyreactivity

Question: With “QVQIVESGGGIVQAGGSLRLSCAASGIIFSGYVMGWYRQAPGKERQLVAAISSGGSKYYADSVKGRFTISRDNAKNTFYLQINSLKPEDTEVYYCAAAGYWTLGYGYWGQGTQVTVSS” as the sequence, how does the “polyreactivity (PSR sort gate)” value read?
Answer: low polyreactivity

Question: For “QVQIVESGGGLDQAGGSLRLSCAASGRTLGYYAMVWYRQAPGIERELVAAISRTGGRTYYADSVKGRFTISLDNAKNTVYLQMNSLKPEDTAVYYCAVVAPDGYDFYYWGQGTQVTVSS”, which “polyreactivity (PSR sort gate)” value is on record?
Answer: high polyreactivity

Question: For “QVQIVESGGGLFQAGGILRLSCAASGLTLFRDAMGWYRQAPGKERELVAAIDYGGGTYYADSVKGRFTISRDNAKTTVNLQMNRLKVEDTAVYYCAVEPEYKYYEGDFWGQGTQVTVSS”, which “polyreactivity (PSR sort gate)” value is on record?
Answer: low polyreactivity

Question: Which “polyreactivity (PSR sort gate)” value does the source give for “QVQIVESGGGLFQAGGRLPLSCAASGSSFKINDMGWYRHAPGKERELVATITWSTGTTYYADSVKGLFTISRYNAKNTVYLKMNSLKPEYTAVYYCAADYCSYGYVLFDYWGQGTQVTVSS” here?
Answer: low polyreactivity

Question: Which “polyreactivity (PSR sort gate)” value does the source give for “QVQIVESGGGLVQAGGILRLSCAASGITFTSYAMGWYRQAPGKEREFVAAISWSGDRTYYADSVKGRFTISRDNAKNTVYLQMICLKPEETAVYYCNAYIYFSAYDPDYYWGQGTQVTVSS” here?
Answer: high polyreactivity

Question: For “QVQIVESGGGLVQAGGSLRFSCAASGRIFRGYDMGWYRQAPGKEREFVAAISWSGGNTYYADSVKGRFTISRDNAKNTVYLLMNSLNPEDTAVYYCAARVFGSHFYYRTRPYDYWGQGTQVTVSS”, which “polyreactivity (PSR sort gate)” value is on record?
Answer: high polyreactivity

Question: For “QVQIVESGGGLVQAGGSLRISCAASGSIFIYYAMGWYRQAPGKDRELVAAISNGGSTNYADSVKGRFTISRDNANNTVYLLMNRLTPEDTSVFYCNKQYWYWSNTLTIRDYWGQGTQVTVSS”, which “polyreactivity (PSR sort gate)” value is on record?
Answer: low polyreactivity

Question: For “QVQIVESGGGLVQAGGSLRLICAASGIIFEGYAMGWYRQAPGKERELVAAISQSGGSTRYADSVKGRFTISRDNATNTVYLQMNSLKPEDTAVYYFAKEVWNWGPYYYWGQGTQVTVSS”, which “polyreactivity (PSR sort gate)” value is on record?
Answer: low polyreactivity

Question: For “QVQIVESGGGLVQAGGSLRLICAASGRILSANAMGWYRQAPGKERELVAAITYSGDNTYYADYVKGRFTISRDNANNTVYLQMNSLKPEDTAVYYCAREFQVDGGEEDYWGQGTQVTVSS”, which “polyreactivity (PSR sort gate)” value is on record?
Answer: low polyreactivity

Question: Which “polyreactivity (PSR sort gate)” value does the source give for “QVQIVESGGGLVQAGGSLRLICAASGSIFFYYAMGWYRQAPGKEWELVAAITFTGGSTYYADSVKGSFTISRDNAKNTVYLQMTSLKPEDTAVYYCAADWYYGFEYEYRGQGTQVTVSS” here?
Answer: high polyreactivity

Question: For “QVQIVESGGGLVQAGGSLRLRCADSGRIFVRYAMGGYIQSPGKDRELVAGITSGSRTNYADSVKGRFTISRDNAKNTVYLQMNSLKPEDTAVYYCAKRYLRYSRLGNYWGQGTQVTVSS”, which “polyreactivity (PSR sort gate)” value is on record?
Answer: high polyreactivity

Question: With “QVQIVESGGGLVQAGGSLRLSCAASGFIFFAYAMGWYRQAPGKERELFAAISRTGGSTYYADSVKGRFTISRDNAKNTVYLQMNSLKPEDTAVYYCAADGGYYGRDYWGQGTQVTVSS” as the sequence, how does the “polyreactivity (PSR sort gate)” value read?
Answer: high polyreactivity

Question: For “QVQIVESGGGLVQAGGSLRLSCAASGFTFVYYAMGWYRQAPGKERELVAAISKRGGSTYYADSVKGRFTISRDNAKNTVYLQMNSLKPEDTAVYYCNAGYGRWQRHDYWGQGTLVTVSS”, which “polyreactivity (PSR sort gate)” value is on record?
Answer: high polyreactivity

Question: With “QVQIVESGGGLVQAGGSLRLSCAASGFTFWNYAMGWYRQAPGKERELVATITRSGGRTYYADSVKGRFTISRDHAKNTGYLQMNSLIPEDTAVYYCSARVWPVVYSWGYNYLGQGTQVTVSS” as the sequence, how does the “polyreactivity (PSR sort gate)” value read?
Answer: high polyreactivity

Question: For “QVQIVESGGGLVQAGGSLRLSCAASGGIFEINVLGWYRQAPGKERELVAAISSRGGSTYYADSVKGRFTISRDNAKNTVYLQMNSLKPEDTAVYYCARRYRPKYGYWGQGTQVTVSS”, which “polyreactivity (PSR sort gate)” value is on record?
Answer: high polyreactivity

Question: Which “polyreactivity (PSR sort gate)” value does the source give for “QVQIVESGGGLVQAGGSLRLSCAASGIIFVRYDIGWYRPAPGKERELVAAISWSGGRTYYADSVKGRFTISRDNAKNTVYLQMNSLKPEDTEVYYCNAKGSYWWYQKDYWGQGTQVTVSS” here?
Answer: high polyreactivity

Question: Which “polyreactivity (PSR sort gate)” value does the source give for “QVQIVESGGGLVQAGGSLRLSCAASGITFYGYAMGWYRQAPGKERELVAVITSSRSSTYYADSVKGRFTISRDNAKNTFFLQMNSLKPEDTEVYYCNPRPGRRSLRSRTYDYWGQGTQVTVSS” here?
Answer: high polyreactivity

Question: With “QVQIVESGGGLVQAGGSLRLSCAASGLIFVVYAMGWNRQATGIERELVADISSVGRTSYADSVKGSFTISRDNAKNNVYLQMNSLKPEDTAVYYCNAYPVFNQYYCWRYDYLGQGTQVTVSS” as the sequence, how does the “polyreactivity (PSR sort gate)” value read?
Answer: low polyreactivity

Question: Which “polyreactivity (PSR sort gate)” value does the source give for “QVQIVESGGGLVQAGGSLRLSCAASGLIFYAYAMGWYRQAPGKERELVAAMSYSGGSTYYADSVKGRFTISRDLAKNTVYLQMNSLKPEDTAVYYCAADDGISTYEYWGQGTQVTVSS” here?
Answer: high polyreactivity

Question: Which “polyreactivity (PSR sort gate)” value does the source give for “QVQIVESGGGLVQAGGSLRLSCAASGLIIPFYAMGWYRQAPGKERELVAAISWSAGSTYYADSVKGRFTISRDNAKNTVYLQMNSLKPEDTAGYYCAATAYYYYDYDYWGQGTQVTVSS” here?
Answer: low polyreactivity

Question: For “QVQIVESGGGLVQAGGSLRLSCAASGLTFRSYTIGWYRHAPGKERELVAAISSGGSTYYADSVKGRFTISRDNAKNTVYLQMNSRKPEDTAVYFCAAPRGHGKYYSWGQGTQVTVSS”, which “polyreactivity (PSR sort gate)” value is on record?
Answer: high polyreactivity

Question: With “QVQIVESGGGLVQAGGSLRLSCAASGNTFPAYAMGWYRQAPGKERELVATISWSTGSTNYADSVKGRFTISRDNANNTVYLQMNSLKPEDTAVYYCNKRYPTDQMYYWGQGTLVTVSS” as the sequence, how does the “polyreactivity (PSR sort gate)” value read?
Answer: low polyreactivity

Question: With “QVQIVESGGGLVQAGGSLRLSCAASGRIFAYNAMGWYRQAPGKERELVVAISWTGGRTSYADSVKGRFTISCDNAKNTVYLQMNSLKPEDTAVYYCNARYRYRLRGYDYWGQGTQVTVSS” as the sequence, how does the “polyreactivity (PSR sort gate)” value read?
Answer: high polyreactivity

Question: For “QVQIVESGGGLVQAGGSLRLSCAASGRIFDDYAMGWYRQAPGKEREFVAAISTSGGSTYYADSVMGRFTISRDNAKNTVYLKMNSLKPEDTAVYYCNKYGYYGWFGSRYWHDYWGQGTQVTVAS”, which “polyreactivity (PSR sort gate)” value is on record?
Answer: high polyreactivity

Question: With “QVQIVESGGGLVQAGGSLRLSCAASGRIFERYAMGWYRQAPGKERELVAGISISGGGTYYADSVKGRFTISRDNAKNTVYLQMNSLKPEHNAVYYCAGTFPREEYGYWGEGTQVTVSS” as the sequence, how does the “polyreactivity (PSR sort gate)” value read?
Answer: low polyreactivity

Question: With “QVQIVESGGGLVQAGGSLRLSCAASGRIFGYNAMGWYRQAPGKERELVATITVGGGSTYYADSVKGRFTISRDNAKNTVYLQMNSLKPEDTAVYYCAADSGYQPVLHRGYYRFNYWGQGTQVTVSS” as the sequence, how does the “polyreactivity (PSR sort gate)” value read?
Answer: low polyreactivity

Question: With “QVQIVESGGGLVQAGGSLRLSCAASGRIFKLYAMGWSRQAPGKERELVAAITRRGGSTSYADSVKGRFTISRDNAKNTVYLQMNSLKPEDTAVYYCAASYTGRTVVQGYEYWGQGTQVTVSS” as the sequence, how does the “polyreactivity (PSR sort gate)” value read?
Answer: high polyreactivity

Question: Which “polyreactivity (PSR sort gate)” value does the source give for “QVQIVESGGGLVQAGGSLRLSCAASGRIFVYNAMGWYRQAPGKERELVAAISSTGSTNYADSVKGRFTISRDNAKNTVYLQMNSLKPEDTAVYYCAAVYYFYGFSGYYGQYDYWGQGSQVTVSS” here?
Answer: low polyreactivity

Question: For “QVQIVESGGGLVQAGGSLRLSCAASGRIFYGYAMGWYRQAPGKEREFVARINVSGTSTFYADSVKGRFTISRDNAKNTVYLQMNSLKPEDTAVYYCAARGLPSNYYYYVHGYIMDYWGQGTQVTVSS”, which “polyreactivity (PSR sort gate)” value is on record?
Answer: low polyreactivity

Question: For “QVQIVESGGGLVQAGGSLRLSCAASGRILEGYAMGWYRQAPGKERELVAAISFSTTTTYYADSVKGRFTISRDNAKNTVYLQMNSLKPEDTAVYYCAADSQQSDYDYWGQGTQVTVSS”, which “polyreactivity (PSR sort gate)” value is on record?
Answer: high polyreactivity

Question: With “QVQIVESGGGLVQAGGSLRLSCAASGRSFYKYAMGWYRQAPGKERELVAAISKSGGRTYYADSVKGRFTISRDNAKNTVYLQMNSLKPEDTAVYYCAAEPFIPDQSRYYYWGQGTQVTVSS” as the sequence, how does the “polyreactivity (PSR sort gate)” value read?
Answer: high polyreactivity

Question: With “QVQIVESGGGLVQAGGSLRLSCAASGRTFNGYAMGWYRQAPGKERELVARITYRGGGTYYADSVKGRFTISRDNAKNTVYLQMNSLKPEDTAVYYCNAVYHSSGRMGYWGQGTQVTLSS” as the sequence, how does the “polyreactivity (PSR sort gate)” value read?
Answer: high polyreactivity
